According to publication PMC9530591:

Target: HA1-trimer (influenza A virus H1N1 A/California/07/2009)
Assay: AUC

Work on HA1-trimer yielded a stoichiometry N of 3.
